Test results from the supplement of paper PMC10567573.

B1: MATN2 (parent)
chain: FSLKTFKRKSEVERAVKRMRHLST

Variants of: B1
Experiment: protein stability index of a GFP-peptide fusion (GPS, HEK-293T) (PSI 1-6); higher = more stable
Settings: c terminus: a fixed tail appended
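Also: lentivirally expressed fusions sorted by FACS into six bins by GFP to DsRed ratio, PSI derived from sequencing read proportions per bin multiplied by bin number.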

| Variant | protein stability index |
| --- | --- |
| FSLKTFKRKQEVERAVKRMRHLST | 2.26 |
| FSLKTFKRKWEVERAVKRMRHLST | 2.88 |
| FSLKTFKRKYEVERAVKRMRHLST | 2.3 |
| FSLKTFKRKVEVERAVKRMRHLST | 3.04 |
| FSLKTFKRKFEVERAVKRMRHLST | 1.77 |
| FSLKTFKRKDEVERAVKRMRHLST | 2.05 |
| FSLKTFKRKTEVERAVKRMRHLST | 2.73 |
| FSLKTFKRKEEVERAVKRMRHLST | 2.42 |
| FSLKTFKRKPEVERAVKRMRHLST | 2.62 |
| FSLKTFKRKREVERAVKRMRHLST | 2.46 |
| FSLKTFKRKAEVERAVKRMRHLST | 1.72 |
| FSLKTFKRKIEVERAVKRMRHLST | 1.49 |
| FSLKTFKRKLEVERAVKRMRHLST | 1.39 |
| FSLKTFKRKNEVERAVKRMRHLST | 3.07 |
| FSLKTFKRKMEVERAVKRMRHLST | 1.91 |
| FSLKTFKRKGEVERAVKRMRHLST | 1.99 |
| FSLKTFKRKHEVERAVKRMRHLST | 2.77 |
| FSLKTFKRKKEVERAVKRMRHLST | 2.21 |
| KSLKTFKRKSEVERAVKRMRHLST | 3.46 |
| PSLKTFKRKSEVERAVKRMRHLST | 3 |
| GSLKTFKRKSEVERAVKRMRHLST | 2.86 |
| WSLKTFKRKSEVERAVKRMRHLST | 1.69 |
| ESLKTFKRKSEVERAVKRMRHLST | 2.72 |
| HSLKTFKRKSEVERAVKRMRHLST | 3.6 |

| Variant | protein stability index |
| --- | --- |
| LSLKTFKRKSEVERAVKRMRHLST | 2.19 |
| NSLKTFKRKSEVERAVKRMRHLST | 3.33 |
| VSLKTFKRKSEVERAVKRMRHLST | 2.56 |
| RSLKTFKRKSEVERAVKRMRHLST | 2.37 |
| DSLKTFKRKSEVERAVKRMRHLST | 2.77 |
| ASLKTFKRKSEVERAVKRMRHLST | 3.04 |
| YSLKTFKRKSEVERAVKRMRHLST | 3.13 |
| CSLKTFKRKSEVERAVKRMRHLST | 2.45 |
| SSLKTFKRKSEVERAVKRMRHLST | 2.87 |
| ISLKTFKRKSEVERAVKRMRHLST | 2.39 |
| MSLKTFKRKSEVERAVKRMRHLST | 2.24 |
| QSLKTFKRKSEVERAVKRMRHLST | 3.62 |
| TSLKTFKRKSEVERAVKRMRHLST | 3.02 |
| FSLKTFKMKSEVERAVKRMRHLST | 3.23 |
| FSLKTFKSKSEVERAVKRMRHLST | 1.93 |
| FSLKTFKGKSEVERAVKRMRHLST | 2.43 |
| FSLKTFKVKSEVERAVKRMRHLST | 2.15 |
| FSLKTFKQKSEVERAVKRMRHLST | 2.49 |
| FSLKTFKFKSEVERAVKRMRHLST | 1.43 |
| FSLKTFKYKSEVERAVKRMRHLST | 2.29 |
| FSLKTFKDKSEVERAVKRMRHLST | 2.85 |
| FSLKTFKCKSEVERAVKRMRHLST | 2.27 |
| FSLKTFKNKSEVERAVKRMRHLST | 2.17 |
| FSLKTFKPKSEVERAVKRMRHLST | 2.7 |

| Variant | protein stability index |
| --- | --- |
| FSLKTFKIKSEVERAVKRMRHLST | 2.12 |
| FSLKTFKKKSEVERAVKRMRHLST | 2.33 |
| FSLKTFKTKSEVERAVKRMRHLST | 2.47 |
| FSLKTFKHKSEVERAVKRMRHLST | 3.3 |
| FSLKTFKLKSEVERAVKRMRHLST | 2.48 |
| FSLITFKRKSEVERAVKRMRHLST | 2.21 |
| FSLATFKRKSEVERAVKRMRHLST | 1.69 |
| FSLGTFKRKSEVERAVKRMRHLST | 2.28 |
| FSLSTFKRKSEVERAVKRMRHLST | 2.09 |
| FSLMTFKRKSEVERAVKRMRHLST | 3.59 |
| FSLDTFKRKSEVERAVKRMRHLST | 2.05 |
| FSLRTFKRKSEVERAVKRMRHLST | 2.38 |
| FSLFTFKRKSEVERAVKRMRHLST | 1.85 |
| FSLQTFKRKSEVERAVKRMRHLST | 2.45 |
| FSLCTFKRKSEVERAVKRMRHLST | 1.74 |
| FSLHTFKRKSEVERAVKRMRHLST | 2.21 |
| FSLNTFKRKSEVERAVKRMRHLST | 2.39 |
| FSLPTFKRKSEVERAVKRMRHLST | 2.58 |
| FSLETFKRKSEVERAVKRMRHLST | 1.8 |
| FSLLTFKRKSEVERAVKRMRHLST | 1.78 |
| FSLTTFKRKSEVERAVKRMRHLST | 2.18 |
| FSLKHFKRKSEVERAVKRMRHLST | 1.91 |
| FSLKGFKRKSEVERAVKRMRHLST | 2.71 |
| FSLKMFKRKSEVERAVKRMRHLST | 2.91 |

| Variant | protein stability index |
| --- | --- |
| FSLKDFKRKSEVERAVKRMRHLST | 2.75 |
| FSLKRFKRKSEVERAVKRMRHLST | 2.48 |
| FSLKLFKRKSEVERAVKRMRHLST | 1.58 |
| FSLKVFKRKSEVERAVKRMRHLST | 1.8 |
| FSLKSFKRKSEVERAVKRMRHLST | 2.4 |
| FSLKIFKRKSEVERAVKRMRHLST | 2.29 |
| FSLKQFKRKSEVERAVKRMRHLST | 3.18 |
| FSLKPFKRKSEVERAVKRMRHLST | 2.11 |
| FSLKFFKRKSEVERAVKRMRHLST | 2.56 |
| FSLKAFKRKSEVERAVKRMRHLST | 1.94 |
| FSLKEFKRKSEVERAVKRMRHLST | 1.47 |
| FSLKYFKRKSEVERAVKRMRHLST | 1.89 |
| FSLKKFKRKSEVERAVKRMRHLST | 2.48 |
| FSLKTFKRDSEVERAVKRMRHLST | 2.46 |
| FSLKTFKRCSEVERAVKRMRHLST | 2.91 |
| FSLKTFKRESEVERAVKRMRHLST | 1.62 |
| FSLKTFKRMSEVERAVKRMRHLST | 2.98 |
| FSLKTFKRISEVERAVKRMRHLST | 1.91 |
| FSLKTFKRQSEVERAVKRMRHLST | 2.52 |
| FSLKTFKRFSEVERAVKRMRHLST | 2.25 |
| FSLKTFKRPSEVERAVKRMRHLST | 1.84 |
| FSLKTFKRTSEVERAVKRMRHLST | 2.09 |
| FSLKTFKRSSEVERAVKRMRHLST | 2.58 |
| FSLKTFKRVSEVERAVKRMRHLST | 1.25 |

| Variant | protein stability index |
| --- | --- |
| FSLKTFKRWSEVERAVKRMRHLST | 3.18 |
| FSLKTFKRASEVERAVKRMRHLST | 1.78 |
| FSLKTFKRNSEVERAVKRMRHLST | 1.65 |
| FSLKTFKRYSEVERAVKRMRHLST | 2.12 |
| FSLKTFKRRSEVERAVKRMRHLST | 1.84 |
| FSLKTFKRGSEVERAVKRMRHLST | 2.46 |
| FSLKTFKRKSKVERAVKRMRHLST | 3.17 |
| FSLKTFKRKSCVERAVKRMRHLST | 1.76 |
| FSLKTFKRKSHVERAVKRMRHLST | 2.29 |
| FSLKTFKRKSFVERAVKRMRHLST | 2.01 |
| FSLKTFKRKSAVERAVKRMRHLST | 2.52 |
| FSLKTFKRKSIVERAVKRMRHLST | 1.96 |
| FSLKTFKRKSQVERAVKRMRHLST | 2.44 |
| FSLKTFKRKSLVERAVKRMRHLST | 2.56 |
| FSLKTFKRKSRVERAVKRMRHLST | 3.21 |
| FSLKTFKRKSDVERAVKRMRHLST | 2.39 |
| FSLKTFKRKSGVERAVKRMRHLST | 2.46 |
| FSLKTFKRKSSVERAVKRMRHLST | 1.98 |
| FSLKTFKRKSMVERAVKRMRHLST | 2.8 |
| FSLKTFKRKSNVERAVKRMRHLST | 2.82 |
| FSLKTFKRKSPVERAVKRMRHLST | 2.17 |
| FSLKTFARKSEVERAVKRMRHLST | 1.78 |
| FSLKTFNRKSEVERAVKRMRHLST | 2.76 |
| FSLKTFSRKSEVERAVKRMRHLST | 1.69 |

| Variant | protein stability index |
| --- | --- |
| FSLKTFHRKSEVERAVKRMRHLST | 2.05 |
| FSLKTFCRKSEVERAVKRMRHLST | 1.63 |
| FSLKTFWRKSEVERAVKRMRHLST | 1.9 |
| FSLKTFGRKSEVERAVKRMRHLST | 2.46 |
| FSLKTFMRKSEVERAVKRMRHLST | 2.66 |
| FSLKTFQRKSEVERAVKRMRHLST | 1.97 |
| FSLKTFPRKSEVERAVKRMRHLST | 2.05 |
| FSLKTFDRKSEVERAVKRMRHLST | 2.51 |
| FSLKTFTRKSEVERAVKRMRHLST | 2.31 |
| FSLKTFRRKSEVERAVKRMRHLST | 2.45 |
| FSLKTFLRKSEVERAVKRMRHLST | 1.15 |
| FSLKTFIRKSEVERAVKRMRHLST | 1.31 |
| FSLKTFVRKSEVERAVKRMRHLST | 2.91 |
| FSLKTFYRKSEVERAVKRMRHLST | 1.77 |
| FSLKTFFRKSEVERAVKRMRHLST | 1.83 |
| FSHKTFKRKSEVERAVKRMRHLST | 2.78 |
| FSNKTFKRKSEVERAVKRMRHLST | 1.98 |
| FSKKTFKRKSEVERAVKRMRHLST | 3.54 |
| FSYKTFKRKSEVERAVKRMRHLST | 2.15 |
| FSRKTFKRKSEVERAVKRMRHLST | 3 |
| FSIKTFKRKSEVERAVKRMRHLST | 2.56 |
| FSWKTFKRKSEVERAVKRMRHLST | 3.27 |
| FSEKTFKRKSEVERAVKRMRHLST | 3.08 |
| FSCKTFKRKSEVERAVKRMRHLST | 1.93 |

| Variant | protein stability index |
| --- | --- |
| FSAKTFKRKSEVERAVKRMRHLST | 2.94 |
| FSQKTFKRKSEVERAVKRMRHLST | 2.23 |
| FSTKTFKRKSEVERAVKRMRHLST | 2.3 |
| FSMKTFKRKSEVERAVKRMRHLST | 2.25 |
| FSVKTFKRKSEVERAVKRMRHLST | 2.11 |
| FSSKTFKRKSEVERAVKRMRHLST | 2.45 |
| FSFKTFKRKSEVERAVKRMRHLST | 2.23 |
| FSPKTFKRKSEVERAVKRMRHLST | 2.13 |
| FSDKTFKRKSEVERAVKRMRHLST | 2 |
| FSGKTFKRKSEVERAVKRMRHLST | 2.91 |
| FSLKTAKRKSEVERAVKRMRHLST | 2.87 |
| FSLKTYKRKSEVERAVKRMRHLST | 3.29 |
| FSLKTNKRKSEVERAVKRMRHLST | 2.38 |
| FSLKTPKRKSEVERAVKRMRHLST | 2.67 |
| FSLKTHKRKSEVERAVKRMRHLST | 2.94 |
| FSLKTLKRKSEVERAVKRMRHLST | 2.55 |
| FSLKTEKRKSEVERAVKRMRHLST | 3.27 |
| FSLKTCKRKSEVERAVKRMRHLST | 2.28 |
| FSLKTRKRKSEVERAVKRMRHLST | 2.73 |
| FSLKTWKRKSEVERAVKRMRHLST | 1.16 |
| FSLKTTKRKSEVERAVKRMRHLST | 2.75 |
| FSLKTVKRKSEVERAVKRMRHLST | 2.96 |
| FSLKTIKRKSEVERAVKRMRHLST | 2.14 |
| FSLKTKKRKSEVERAVKRMRHLST | 3.47 |

| Variant | protein stability index |
| --- | --- |
| FSLKTQKRKSEVERAVKRMRHLST | 2.85 |
| FSLKTDKRKSEVERAVKRMRHLST | 2.43 |
| FSLKTMKRKSEVERAVKRMRHLST | 2.29 |
| FNLKTFKRKSEVERAVKRMRHLST | 2.84 |
| FKLKTFKRKSEVERAVKRMRHLST | 1.95 |
| FYLKTFKRKSEVERAVKRMRHLST | 1.82 |
| FWLKTFKRKSEVERAVKRMRHLST | 1.39 |
| FMLKTFKRKSEVERAVKRMRHLST | 2.5 |
| FHLKTFKRKSEVERAVKRMRHLST | 1.99 |
| FTLKTFKRKSEVERAVKRMRHLST | 1.99 |
| FCLKTFKRKSEVERAVKRMRHLST | 1.5 |
| FVLKTFKRKSEVERAVKRMRHLST | 3.07 |
| FRLKTFKRKSEVERAVKRMRHLST | 2.36 |
| FPLKTFKRKSEVERAVKRMRHLST | 2.42 |
| FALKTFKRKSEVERAVKRMRHLST | 1.8 |
| FQLKTFKRKSEVERAVKRMRHLST | 3.07 |
| FGLKTFKRKSEVERAVKRMRHLST | 3.21 |
| FDLKTFKRKSEVERAVKRMRHLST | 2.77 |
| FLLKTFKRKSEVERAVKRMRHLST | 1.55 |
| FELKTFKRKSEVERAVKRMRHLST | 2.51 |
